This note sets out measurements from patent publication US20020142976A1, “Materials and methods for modulating differentiation” (ICOS Corporation, priority 1998, published 2002).

The experiment concerns the target T1, ATR (Mus musculus, UniProt Q9JKK8).
T1 construct: from tissue; host or cells: mouse testes extract
The experiment is described as follows: MyoD phosphorylation (ATR kinase) assay with MyoD-derived peptide substrates. Type of experiment: biochemical. The following applies: in vitro kinase assay, 32P-γATP, room temperature 40 minutes. How it is done: ATR was captured on a 96 well plate previously coated first with goat anti-mouse antibodies (Pierce) and secondly with anti-ATR antibody 224C. A hybridoma which secretes antibody 224C was deposited with the American Type Culture Collection (ATCC), 12301 Parklawn Drive, Rockville, Md. 20852 on Nov. 7, 1996 and assigned ATCC Accession Nos. HB 12233. The 224C antibody was added to the plate at a concentration of […] in BT blocking buffer and incubated for at least 30 hours at 4° C. The wells were washed with TBS containing 0.05% Tween® 20 and mouse testes extract (prepared as described in Example 6 of WO 97/18323 published May 22, 1997 from International Application No. PCT/US96/19337, incorporated herein by reference) was added. […]
The supernatant, containing the ^32P-labeled peptide was transferred to P81 phosphocellulose paper, the paper was washed three times with 100 mM phosphoric acid (to remove unincorporated label) and once with ethanol, and Cerenkov radiation (in counts per minute, cpm) was counted in a scintillation counter.
MyoD is a 319 amino acid transcription factor that is often phosphorylated in cells. As described in Example 6 (of WO 97/18323), it has been determined that ATR phosphorylates MyoD in in vitro kinase assays and the target serine residue in myoD has been identified using a MyoD deletion peptide, B-HLH containing amino acids 102 through 165. […]

T1 sequence (Q9JKK8 whole entry): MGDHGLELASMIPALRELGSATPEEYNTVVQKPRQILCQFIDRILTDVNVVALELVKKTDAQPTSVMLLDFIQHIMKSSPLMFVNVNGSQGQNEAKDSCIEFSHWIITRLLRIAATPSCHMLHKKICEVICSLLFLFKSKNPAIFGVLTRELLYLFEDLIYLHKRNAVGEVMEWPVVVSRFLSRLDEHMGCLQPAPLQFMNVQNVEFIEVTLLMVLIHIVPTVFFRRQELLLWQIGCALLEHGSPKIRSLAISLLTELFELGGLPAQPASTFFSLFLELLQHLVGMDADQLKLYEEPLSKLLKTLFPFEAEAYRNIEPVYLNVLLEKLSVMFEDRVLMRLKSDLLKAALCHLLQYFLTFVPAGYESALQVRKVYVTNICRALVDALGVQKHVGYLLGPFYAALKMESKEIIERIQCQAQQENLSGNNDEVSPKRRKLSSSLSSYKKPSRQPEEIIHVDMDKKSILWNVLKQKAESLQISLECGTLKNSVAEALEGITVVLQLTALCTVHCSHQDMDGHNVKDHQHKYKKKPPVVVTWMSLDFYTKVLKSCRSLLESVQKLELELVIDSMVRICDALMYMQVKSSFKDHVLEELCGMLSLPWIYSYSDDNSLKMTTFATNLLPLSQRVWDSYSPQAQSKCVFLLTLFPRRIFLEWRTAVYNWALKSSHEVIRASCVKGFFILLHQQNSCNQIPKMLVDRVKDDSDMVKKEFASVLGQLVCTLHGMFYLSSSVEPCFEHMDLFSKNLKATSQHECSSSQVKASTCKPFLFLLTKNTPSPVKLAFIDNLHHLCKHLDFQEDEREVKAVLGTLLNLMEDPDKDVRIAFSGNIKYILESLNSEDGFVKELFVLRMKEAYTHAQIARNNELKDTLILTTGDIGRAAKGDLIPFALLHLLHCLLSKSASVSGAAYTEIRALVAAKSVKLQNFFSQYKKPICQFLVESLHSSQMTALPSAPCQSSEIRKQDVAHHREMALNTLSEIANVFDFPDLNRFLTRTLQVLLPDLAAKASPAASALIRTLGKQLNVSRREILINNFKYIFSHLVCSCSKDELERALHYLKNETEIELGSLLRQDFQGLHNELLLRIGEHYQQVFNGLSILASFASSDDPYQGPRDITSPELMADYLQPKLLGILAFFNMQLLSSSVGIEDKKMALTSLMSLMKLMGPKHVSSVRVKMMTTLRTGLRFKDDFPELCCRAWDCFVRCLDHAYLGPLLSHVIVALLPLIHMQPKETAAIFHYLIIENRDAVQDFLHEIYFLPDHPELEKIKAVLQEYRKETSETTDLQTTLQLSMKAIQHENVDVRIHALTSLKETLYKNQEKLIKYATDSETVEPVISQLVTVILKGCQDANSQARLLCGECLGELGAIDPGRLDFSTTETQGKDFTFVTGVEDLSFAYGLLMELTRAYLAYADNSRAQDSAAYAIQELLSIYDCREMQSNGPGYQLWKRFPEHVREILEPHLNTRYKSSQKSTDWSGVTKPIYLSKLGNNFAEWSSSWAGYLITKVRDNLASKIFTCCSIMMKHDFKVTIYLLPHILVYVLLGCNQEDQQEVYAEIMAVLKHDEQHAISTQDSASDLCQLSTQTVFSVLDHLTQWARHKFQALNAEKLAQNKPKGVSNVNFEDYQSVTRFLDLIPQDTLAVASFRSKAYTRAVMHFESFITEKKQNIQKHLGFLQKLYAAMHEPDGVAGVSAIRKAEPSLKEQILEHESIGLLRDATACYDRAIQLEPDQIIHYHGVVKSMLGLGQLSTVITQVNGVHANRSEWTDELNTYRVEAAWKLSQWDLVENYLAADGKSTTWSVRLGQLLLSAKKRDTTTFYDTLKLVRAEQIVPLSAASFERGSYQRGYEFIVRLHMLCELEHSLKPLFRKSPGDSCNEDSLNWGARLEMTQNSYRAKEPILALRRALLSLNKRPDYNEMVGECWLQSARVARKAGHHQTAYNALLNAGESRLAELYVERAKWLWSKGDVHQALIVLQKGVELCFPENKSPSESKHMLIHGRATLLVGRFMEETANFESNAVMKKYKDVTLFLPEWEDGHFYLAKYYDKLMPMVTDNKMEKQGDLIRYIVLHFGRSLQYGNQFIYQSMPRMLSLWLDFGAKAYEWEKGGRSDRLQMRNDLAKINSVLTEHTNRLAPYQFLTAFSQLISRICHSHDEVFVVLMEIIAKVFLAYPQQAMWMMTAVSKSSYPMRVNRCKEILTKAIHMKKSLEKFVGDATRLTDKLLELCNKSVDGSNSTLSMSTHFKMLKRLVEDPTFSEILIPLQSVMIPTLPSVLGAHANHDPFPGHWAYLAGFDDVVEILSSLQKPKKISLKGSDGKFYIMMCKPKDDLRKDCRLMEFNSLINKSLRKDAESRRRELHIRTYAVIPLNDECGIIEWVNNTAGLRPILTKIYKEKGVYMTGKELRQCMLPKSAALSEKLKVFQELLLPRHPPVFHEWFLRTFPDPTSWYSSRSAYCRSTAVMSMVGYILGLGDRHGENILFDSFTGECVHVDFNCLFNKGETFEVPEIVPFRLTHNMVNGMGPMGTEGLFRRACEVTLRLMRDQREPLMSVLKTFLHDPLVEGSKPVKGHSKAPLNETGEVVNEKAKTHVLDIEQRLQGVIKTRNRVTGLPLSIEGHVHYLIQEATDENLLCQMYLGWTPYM
T1 sequence (Q8BMG1 whole entry partner): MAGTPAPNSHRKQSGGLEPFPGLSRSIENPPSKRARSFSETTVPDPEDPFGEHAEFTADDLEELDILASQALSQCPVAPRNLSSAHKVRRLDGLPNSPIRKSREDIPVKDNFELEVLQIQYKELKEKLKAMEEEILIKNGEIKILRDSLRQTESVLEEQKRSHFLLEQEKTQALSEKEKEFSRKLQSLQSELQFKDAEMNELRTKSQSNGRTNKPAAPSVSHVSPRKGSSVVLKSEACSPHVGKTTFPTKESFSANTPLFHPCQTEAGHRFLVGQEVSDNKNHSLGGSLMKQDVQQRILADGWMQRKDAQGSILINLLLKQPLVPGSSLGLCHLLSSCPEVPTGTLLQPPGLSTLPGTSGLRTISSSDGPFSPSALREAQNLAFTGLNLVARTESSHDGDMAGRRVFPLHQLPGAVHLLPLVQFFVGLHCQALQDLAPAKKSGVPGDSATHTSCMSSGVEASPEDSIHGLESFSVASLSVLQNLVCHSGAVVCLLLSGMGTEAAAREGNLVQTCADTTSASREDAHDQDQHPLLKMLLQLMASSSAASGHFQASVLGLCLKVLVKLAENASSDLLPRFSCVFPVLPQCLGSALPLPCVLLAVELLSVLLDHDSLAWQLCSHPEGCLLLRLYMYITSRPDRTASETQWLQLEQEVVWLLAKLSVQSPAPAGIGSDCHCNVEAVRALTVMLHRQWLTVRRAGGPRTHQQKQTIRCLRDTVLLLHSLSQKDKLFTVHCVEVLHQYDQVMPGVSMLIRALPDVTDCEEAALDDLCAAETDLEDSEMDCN

For the substance “NH2-Leu-Lys-Arg-Cys-Thr-Ser-Ser-Asn-Pro-Asn-Gln-Arg-Leu-Pro-Lys-COOH (H-LKRCTSSNPNQRLPK-OH) [IDH22]”, the “phosphorylation of peptide by ATR” value was “phosphorylated”.
